# T1: β-casein (UniProt P02666)
# T1 sequence: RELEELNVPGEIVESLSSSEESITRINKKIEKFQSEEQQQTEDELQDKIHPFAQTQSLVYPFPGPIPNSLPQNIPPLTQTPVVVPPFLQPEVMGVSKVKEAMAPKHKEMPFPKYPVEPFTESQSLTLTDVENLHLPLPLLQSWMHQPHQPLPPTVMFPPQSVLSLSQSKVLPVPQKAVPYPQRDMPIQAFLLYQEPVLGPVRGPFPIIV
# B1: recombinant 6X-His-TGase fusion protein of Streptomyces mobaraensis ATCC 29032 (enzyme, UniProt P81453 77-407, looked up)
# Protein-glutamine gamma-glutamyltransferase: DSDDRVTPPAEPLDRMPDPYRPSYGRAETVVNNYIRKWQQVYSHRDGRKQQMTEEQREWLSYGCVGVTWVNSGQYPTNRLAFASFDEDRFKNELKNGRPRSGETRAEFEGRVAKESFDEEKGFQRAREVASVMNRALENAHDESAYLDNLKKELANGNDALRNEDARSPFYSALRNTPSFKERNGGNHDPSRMKAVIYSKHFWSGQDRSSSADKRKYGDPDAFRPAPGTGLVDMSRDRNIPRSPTSPGEGFVNFDYGWFGAQTEADADKTVWTHGNHYHAPNGSLGAMHVYESKFRNWSEGYSDFDRGAYVITFIPKSWNTAPDKVKQGWP
# modifications: N-terminal 6xHis tag
# How the values were obtained:
# [1] = target: bovine serum albumin (BSA), native (UniProt P02769)
# glucose oxidase = glucose oxidase (UniProt P13006)
# [2] = target: modified bovine serum albumin (denatured and partially refolded) (UniProt P02769)
# [3] = tested on: modified histone H3 protein (denatured and partially refolded)
# [4] = target: modified ovalbumin (denatured and partially refolded) (UniProt P01012)
# [5] = tested on: myelin basic protein (MBP)
# ovalbumin, native = ovalbumin, native (UniProt P01012)
# [6] = tested on: recombinant serum albumin
# [7] = tested on: synthetic Bovine Serum Albumin peptide 5 (BSA5)
# β-casein = target: T1, β-casein
# recombinant serum albumin, sequence (P02768 25-609): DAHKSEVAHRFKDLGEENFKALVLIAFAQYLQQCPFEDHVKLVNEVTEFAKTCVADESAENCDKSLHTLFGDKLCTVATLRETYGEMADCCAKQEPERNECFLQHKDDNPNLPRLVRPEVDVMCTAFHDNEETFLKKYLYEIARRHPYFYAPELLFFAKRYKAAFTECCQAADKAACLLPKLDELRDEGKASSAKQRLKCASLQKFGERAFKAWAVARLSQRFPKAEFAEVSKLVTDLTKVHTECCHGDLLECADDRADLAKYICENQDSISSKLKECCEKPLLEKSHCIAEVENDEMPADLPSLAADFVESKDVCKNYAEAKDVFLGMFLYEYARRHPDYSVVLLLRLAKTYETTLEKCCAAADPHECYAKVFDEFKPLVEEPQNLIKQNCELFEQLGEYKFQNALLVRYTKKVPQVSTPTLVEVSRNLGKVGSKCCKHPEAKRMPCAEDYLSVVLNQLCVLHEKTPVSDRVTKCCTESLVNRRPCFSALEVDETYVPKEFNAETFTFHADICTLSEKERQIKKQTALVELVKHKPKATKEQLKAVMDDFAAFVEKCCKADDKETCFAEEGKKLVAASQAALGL
# bovine serum albumin (BSA), native, sequence (P02769 25-607): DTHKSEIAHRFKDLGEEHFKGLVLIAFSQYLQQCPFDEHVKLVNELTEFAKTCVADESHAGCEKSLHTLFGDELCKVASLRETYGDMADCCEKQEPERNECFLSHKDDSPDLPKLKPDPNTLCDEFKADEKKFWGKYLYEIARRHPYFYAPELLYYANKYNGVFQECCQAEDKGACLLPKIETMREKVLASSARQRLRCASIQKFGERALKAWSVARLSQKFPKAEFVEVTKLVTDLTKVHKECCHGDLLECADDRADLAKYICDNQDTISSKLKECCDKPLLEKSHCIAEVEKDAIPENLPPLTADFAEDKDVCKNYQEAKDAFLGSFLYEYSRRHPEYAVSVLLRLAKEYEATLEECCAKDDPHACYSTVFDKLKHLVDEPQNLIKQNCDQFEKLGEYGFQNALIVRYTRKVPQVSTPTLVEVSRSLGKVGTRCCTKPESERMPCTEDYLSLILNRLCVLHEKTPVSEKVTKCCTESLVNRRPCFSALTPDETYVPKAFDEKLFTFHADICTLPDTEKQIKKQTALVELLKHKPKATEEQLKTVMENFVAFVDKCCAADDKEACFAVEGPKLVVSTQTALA
# modified bovine serum albumin (denatured and partially refolded), sequence (P02769 25-607): as above
# myelin basic protein (MBP), sequence (P02687 whole entry): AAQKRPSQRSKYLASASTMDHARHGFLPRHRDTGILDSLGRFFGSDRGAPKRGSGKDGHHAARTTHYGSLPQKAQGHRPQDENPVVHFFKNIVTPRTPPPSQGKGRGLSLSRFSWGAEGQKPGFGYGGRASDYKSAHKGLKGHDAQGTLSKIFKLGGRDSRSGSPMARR
# modified ovalbumin (denatured and partially refolded), sequence (P01012 2-386): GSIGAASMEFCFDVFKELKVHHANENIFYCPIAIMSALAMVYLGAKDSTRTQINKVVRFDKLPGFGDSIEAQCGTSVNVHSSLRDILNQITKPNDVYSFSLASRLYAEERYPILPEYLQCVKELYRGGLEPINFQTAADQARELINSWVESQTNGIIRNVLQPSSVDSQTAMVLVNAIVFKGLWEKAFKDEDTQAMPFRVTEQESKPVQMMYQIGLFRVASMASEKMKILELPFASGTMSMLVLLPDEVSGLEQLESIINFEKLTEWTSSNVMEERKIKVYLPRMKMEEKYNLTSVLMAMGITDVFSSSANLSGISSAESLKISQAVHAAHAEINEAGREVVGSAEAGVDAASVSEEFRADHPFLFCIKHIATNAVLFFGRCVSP
# ovalbumin, native, sequence (P01012 2-386): as above
# glucose oxidase, sequence (P13006 23-605): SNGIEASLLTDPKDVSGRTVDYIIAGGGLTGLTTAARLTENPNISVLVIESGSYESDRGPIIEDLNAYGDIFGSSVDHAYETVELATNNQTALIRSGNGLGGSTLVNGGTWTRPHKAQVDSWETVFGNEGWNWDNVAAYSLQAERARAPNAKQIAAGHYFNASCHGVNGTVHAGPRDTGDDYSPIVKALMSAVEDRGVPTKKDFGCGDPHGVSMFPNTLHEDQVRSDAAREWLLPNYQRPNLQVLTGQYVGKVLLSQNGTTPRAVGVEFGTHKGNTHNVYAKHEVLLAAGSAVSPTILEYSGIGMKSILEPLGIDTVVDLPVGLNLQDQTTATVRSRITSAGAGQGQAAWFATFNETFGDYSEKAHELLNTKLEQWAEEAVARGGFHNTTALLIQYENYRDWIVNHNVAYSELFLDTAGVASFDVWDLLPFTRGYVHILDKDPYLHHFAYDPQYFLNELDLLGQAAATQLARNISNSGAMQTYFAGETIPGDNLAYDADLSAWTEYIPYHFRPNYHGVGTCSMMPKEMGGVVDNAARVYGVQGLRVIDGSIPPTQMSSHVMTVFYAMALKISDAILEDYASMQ
protein,measurement,setting,value
B1,cross-linking of native non-substrate proteins,[1],there was no cross-linking even in the presence of a large amount of the purified recombinant transglutaminase fusion proteins in the activation solution
same,cross-linking of native non-substrate proteins,glucose oxidase,there was no cross-linking even in the presence of a large amount of the purified recombinant transglutaminase fusion proteins in the activation solution
same,cross-linking of native non-substrate proteins,"histone protein, native",there was no cross-linking even in the presence of a large amount of the purified recombinant transglutaminase fusion proteins in the activation solution
same,cross-linking seen on SDS-PAGE,"histone protein, native",complete and partial cross-linking was both observed for native histine H3 protein under the condition tested
same,cross-linking seen on SDS-PAGE,[2],"only the reactions containing the modified protein species of BSA, histine H3 protein, glucose oxidase, and ovalbumin were cross-linked by the purified recombinant SM TGase"
same,cross-linking seen on SDS-PAGE,[3],"only the reactions containing the modified protein species of BSA, histine H3 protein, glucose oxidase, and ovalbumin were cross-linked by the purified recombinant SM TGase"
same,cross-linking seen on SDS-PAGE,[4],"only the reactions containing the modified protein species of BSA, histine H3 protein, glucose oxidase, and ovalbumin were cross-linked by the purified recombinant SM TGase"
same,cross-linking of native non-substrate proteins,[5],there was no cross-linking even in the presence of a large amount of the purified recombinant transglutaminase fusion proteins in the activation solution
same,cross-linking of native non-substrate proteins,"ovalbumin, native",there was no cross-linking even in the presence of a large amount of the purified recombinant transglutaminase fusion proteins in the activation solution
same,cross-linking seen on SDS-PAGE,[6],the cross-linking reaction containing recombinant serum albumin revealed a mixture of very high molecular weight polymers of different length
same,"cross-linking seen on SDS-PAGE, rising amounts of SM TGase",[7],"increased amount of recombinant SM TGase corresponding to an increase in cross-linked (CL) BSA5 peptide, which run as a large molecular weight polymer on the top of the separating gel"
same,"cross-linking seen on SDS-PAGE, 1, 2 and 3 hours",β-amyloid peptide (1-42),The β-amyloid (1-42) peptide can be cross-linked by the recombinant transglutaminase as shown as a smear of a mixture of cross-linked peptides on the top of the separating gel and the disappearance of the peptide bands at the bottom of the SDS-PAGE
same,"cross-linking of a mixture of β-casein and glucose oxidase, SDS-PAGE",β-casein,"both protein species can be cross-linked by the purified recombinant SM TGase, as indicated by the disappearance of the two monomer bands"
same,"cross-linking of β-casein seen on SDS-PAGE, 0 mM DTT",β-casein,"in the absence of DTT (lane 1 and 2), the recombinant SM TGase had no cross-linking activity on β-casein"
same,"cross-linking of β-casein seen on SDS-PAGE, about 2 mM DTT",β-casein,the recombinant SM TGase was activated and β-casein run as a mixture of cross-linked polymer and monomer
same,"cross-linking of β-casein seen on SDS-PAGE, about 10 mM DTT",β-casein,the catalytic cross-linking activity of SM TGase resulted in cross-linking of all detectable β-casein substrates in the reaction
same,cross-linking seen on SDS-PAGE,β-casein,the cross-linked (CL) β-casein migrated as a smear on the SDS-PAGE gel indicating a mixture of high molecular weight polymers of different length

# Source: patent publication US20030219857
